Legend:
[1] = test system: HeLa Kyoto; assay: solubility change mitosis vs G1/S (difference of NP-40 vs SDS log2 ratios) (log2 ratio difference); higher = more soluble in mitosis
[2] = test system: HeLa Kyoto; assay: thermal stability score vs G1/S (z-score of summed log2 fold changes over temperatures); higher = more thermally stable than in G1/S
[3] = test system: HeLa Kyoto; assay: melting temperature (median over replicates), in situ; higher = more thermally stable
[4] = test system: HeLa Kyoto; assay: solubility in G1/S (NP-40 vs SDS abundance) (log2 ratio); higher = more soluble; conditions: cell cycle stage: G1/S
[5] = cell cycle stage: early G1 (4.5 h after nocodazole release)
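Throughout, for melting temperature (median over replicates), in situ: HeLa Kyoto cells synchronized by double thymidine or nocodazole block, proteins quantified by TMT10plex mass spectrometry, three independent biological replicates.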
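Throughout, for solubility change mitosis vs G1/S (difference of NP-40 vs SDS log2 ratios): synchronized HeLa Kyoto cells (double thymidine block for G1/S, nocodazole release for mitosis), protein amounts in NP-40 versus SDS lysates quantified by mass spectrometry, three biological replicates.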
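Throughout, for solubility in G1/S (NP-40 vs SDS abundance): HeLa Kyoto cells arrested at G1/S by double thymidine block, proteins quantified by TMT10plex mass spectrometry in mild NP-40 versus SDS extracts, three biological replicates.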
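Throughout, for thermal stability score vs G1/S (z-score of summed log2 fold changes over temperatures): synchronized HeLa Kyoto cells, proteins quantified by TMT10plex mass spectrometry, three biological replicates, mitosis taken 0.5 h after nocodazole release, G1/S directly after double thymidine block.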

Substance | solubility change mitosis (log2) [1] | thermal stability score [2, 5] | thermal stability score ([2]; cell cycle stage: mitosis) | melting temperature ([3]; cell cycle stage: G1/S) [°C] | melting temperature ([3]; cell cycle stage: mitosis) [°C] | solubility in G1/S (log2) [4]
MEKTCIDALPLTMNSSEKQETVCIFGTGDFGRSLGLKMLQCGYSVVFGSRNPQKTTLLPSGAEVLSYSEAAKKSGIIIIAIHREHYDFLTELTEVLNGKILVDISNNLKINQYPESNAEYLAHLVPGAHVVKAFNTISAWALQSGALDASRQVFVCGNDSKAKQRVMDIVRNLGLTPMDQGSLMAAKEIEKYPLQLFPMWRFPFYLSAVLCVFLFFYCVIRDVIYPYVYEKKDNTFRMAISIPNRIFPITALTLLALVYLPGVIAAILQLYRGTKYRRFPDWLDHWMLCRKQLGLVALGFAFLHVLYTLVIPIRYYVRWRLGNLTVTQAILKKENPFSTSSAWLSDSYVALGILGFFLFVLLGITSLPSVSNAVNWREFRFVQSKLGYLTLILCTAHTLVYGGKRFLSPSNLRWYLPAAYVLGLIIPCTVLVIKFVLIMPCVDNTLTRIRQGWERNSKH [STEAP4] | -0.115 | -2.95 | -3.54 | 60.3 | 57.7 | -0.0287
MSSCSRVALVTGANRGIGLAIARELCRQFSGDVVLTARDVARGQAAVQQLQAEGLSPRFHQLDIDDLQSIRALRDFLRKEYGGLNVLVNNAAVAFKSDDPMPFDIKAEMTLKTNFFATRNMCNELLPIMKPHGRVVNISSLQCLRAFENCSEDLQERFHSETLTEGDLVDLMKKFVEDTKNEVHEREGWPNSPYGVSKLGVTVLSRILARRLDEKRKADRILVNACCPGPVKTDMDGKDSIRTVEEGAETPVYLALLPPDATEPQGQLVHDKVVQNW [CBR3] | -0.0459 | -0.991 | 0.085 | 51.4 | 52.4 | 0.562
MRRKEKRLLQAVALVLAALVLLPNVGLWALYRERQPDGTPGGSGAAVAPAAGQGSHSRQKKTFFLGDGQKLKDWHDKEAIRRDAQRVGNGEQGRPYPMTDAERVDQAYRENGFNIYVSDKISLNRSLPDIRHPNCNSKRYLETLPNTSIIIPFHNEGWSSLLRTVHSVLNRSPPELVAEIVLVDDFSDREHLKKPLEDYMALFPSVRILRTKKREGLIRTRMLGASVATGDVITFLDSHCEANVNWLPPLLDRIARNRKTIVCPMIDVIDHDDFRYETQAGDAMRGAFDWEMYYKRIPIPPELQKADPSDPFESPVMAGGLFAVDRKWFWELGGYDPGLEIWGGEQYEISFKVWMCGGRMEDIPCSRVGHIYRKYVPYKVPAGVSLARNLKRVAEVWMDEYAEYIYQRRPEYRHLSAGDVAVQKKLRSSLNCKSFKWFMTKIAWDLPKFYPPVEPPAAAWGEIRNVGTGLCADTKHGALGSPLRLEGCVRGRGEAAWNNMQVFTFTWREDIRPGDPQHTKKFCFDAISHTSPVTLYDCHSMKGNQLWKYRKDKTLYHPVSGSCMDCSESDHRIFMNTCNPSSLTQQWLFEHTNSTVLEKFNRN [GALNT10] | -0.0786 | 0.401 | 0.507 | 49.9 | 52.5 | -0.106
PLXNB2 | -0.0477 | -1.95 | -2.08 | 52.2 | 51.1 | -0.0357
FRG1 | 0.0777 | 0.899 | 0.827 | 51.2 | 51.3 | -0.326
MCGDCVEKEYPNRGNTCLENGSFLLNFTGCAVCSKRDFMLITNKSLKEEDGEEIVTYDHLCKNCHHVIARHEYTFSIMDEFQEYTMLCLLCGKAEDTISILPDDPRQMTLLF [CHURC1] | -0.361 | -2.8 | -3.3 | 51.5 | 52.5 | 0.0387
MAAQRIRAANSNGLPRCKSEGTLIDLSEGFSETSFNDIKVPSPSALLVDNPTPFGNAKEVIAIKDYCPTNFTTLKFSKGDHLYVLDTSGGEWWYAHNTTEMGYIPSSYVQPLNYRNSTLSDSGMIDNLPDSPDEVAKELELLGGWTDDKKVPGRMYSNNPFWNGVQTNPFLNGNVPVMPSLDELNPKSTVDLLLFDAGTSSFTESSSATTNSTGNIFDELPVTNGLHAEPPVRRDNPFFRSKRSYSLSELSVLQAKSDAPTSSSFFTGLKSPAPEQFQSREDFRTAWLNHRKLARSCHDLDLLGQSPGWGQTQAVETNIVCKLDSSGGAVQLPDTSISIHVPEGHVAPGETQQISMKALLDPPLELNSDRSCSISPVLEVKLSNLEVKTSIILEMKVSAEIKNDLFSKSTVGLQCLRSDSKEGPYVSVPLNCSCGDTVQAQLHNLEPCMYVAVVAHGPSILYPSTVWDFINKKVTVGLYGPKHIHPSFKTVVTIFGHDCAPKTLLVSEVTRQAPNPAPVALQLWGKHQFVLSRPQDLKVCMFSNMTNYEVKASEQAKVVRGFQLKLGKVSRLIFPITSQNPNELSDFTLRVQVKDDQEAILTQFCVQTPQPPPKSAIKPSGQRRFLKKNEVGKIILSPFATTTKYPTFQDRPVSSLKFGKLLKTVVRQNKNHYLLEYKKGDGIALLSEERVRLRGQLWTKEWYIGYYQGRVGLVHTKNVLVVGRARPSLCSGPELSTSVLLEQILRPCKFLTYIYASVRTLLMENISSWRSFADALGYVNLPLTFFCRAELDSEPERVASVLEKLKEDCNNTENKERKSFQKELVMALLKMDCQGLVVRLIQDFVLLTTAVEVAQRWRELAEKLAKVSKQQMDAYESPHRDRNGVVDSEAMWKPAYDFLLTWSHQIGDSYRDVIQELHLGLDKMKNPITKRWKHLTGTLILVNSLDVLRAAAFSPADQDDFVI [SH3BP4] | -0.133 | 0.727 | 0.411 | 50.4 | 49.2 | -0.0978
MLPARCARLLTPHLLLVLVQLSPARGHRTTGPRFLISDRDPQCNLHCSRTQPKPICASDGRSYESMCEYQRAKCRDPTLGVVHRGRCKDAGQSKCRLERAQALEQAKKPQEAVFVPECGEDGSFTQVQCHTYTGYCWCVTPDGKPISGSSVQNKTPVCSGSVTDKPLSQGNSGRKDDGSKPTPTMETQPVFDGDEITAPTLWIKHLVIKDSKLNNTNIRNSEKVYSCDQERQSALEEAQQNPREGIVIPECAPGGLYKPVQCHQSTGYCWCVLVDTGRPLPGTSTRYVMPSCESDARAKTTEADDPFKDRELPGCPEGKKMEFITSLLDALTTDMVQAINSAAPTGGGRFSEPDPSHTLEERVVHWYFSQLDSNSSNDINKREMKPFKRYVKKKAKPKKCARRFTDYCDLNKDKVISLPELKGCLGVSKEGRLV [SMOC1] | -0.0568 | -1.94 | -1.17 | – | 54.9 | 0.221
MSASVVSVISRFLEEYLSSTPQRLKLLDAYLLYILLTGALQFGYCLLVGTFPFNSFLSGFISCVGSFILAVCLRIQINPQNKADFQGISPERAFADFLFASTILHLVVMNFVG [DAD1] | -0.257 | 0.505 | -0.552 | 54.5 | 54.2 | -0.0329
MGGTTSTRRVTFEADENENITVVKGIRLSENVIDRMKESSPSGSKSQRYSGAYGASVSDEELKRRVAEELALEQAKKESEDQKRLKQAKELDRERAAANEQLTRAILRERICSEEERAKAKHLARQLEEKDRVLKKQDAFYKEQLARLEERSSEFYRVTTEQYQKAAEEVEAKFKRYESHPVCADLQAKILQCYRENTHQTLKCSALATQYMHCVNHAKQSMLEKGG [CHCHD3] | 0.291 | -2.54 | -6 | 54.6 | 54.2 | 0.229
MDFQHRPGGKTGSGGVASSSESNRDRRERLRQLALETIDINKDPYFMKNHLGSYECKLCLTLHNNEGSYLAHTQGKKHQTNLARRAAKEAKEAPAQPAPEKVKVEVKKFVKIGRPGYKVTKQRDSEMGQQSLLFQIDYPEIAEGIMPRHRFMSAYEQRIEPPDRRWQYLLMAAEPYETIAFKVPSREIDKAEGKFWTHWNRETKQFFLQFHFKMEKPPAPPSLPAGPPGVKRPPPPLMNGLPPRPPLPESLPPPPPGGLPLPPMPPTGPAPSGPPGPPQLPPPAPGVHPPAPVVHPPASGVHPPAPGVHPPAPGVHPPAPGVHPPTSGVHPPAPGVHPPAPGVHPPAPGVHPPAPGVHPPAPGVHPPPSAGVHPQAPGVHPAAPAVHPQAPGVHPPAPGMHPQAPGVHPQPPGVHPSAPGVHPQPPGVHPSNPGVHPPTPMPPMLRPPLPSEGPGNIPPPPPTN [SF3A2] | 0.322 | -1.16 | -1.41 | 50 | 50.5 | 0.0115
MAVTALAARTWLGVWGVRTMQARGFGSDQSENVDRGAGSIREAGGAFGKREQAEEERYFRAQSREQLAALKKHHEEEIVHHKKEIERLQKEIERHKQKIKMLKHDD [ATPIF1] | 0.408 | 3.16 | -2.08 | 56.8 | 56.9 | 0.903
MEPTAPSLTEEDLTEVKKDALENLRVYLCEKIIAERHFDHLRAKKILSREDTEEISCRTSSRKRAGKLLDYLQENPKGLDTLVESIRREKTQNFLIQKITDEVLKLRNIKLEHLKGLKCSSCEPFPDGATNNLSRSNSDESNFSEKLRASTVMYHPEGESSTTPFFSTNSSLNLPVLEVGRTENTIFSSTTLPRPGDPGAPPLPPDLQLEEEGTCANSSEMFLPLRSRTVSRQ [BCL10] | 0.181 | -0.239 | -0.726 | 49.8 | 50.5 | 0.624
MGCDGGTIPKRHELVKGPKKVEKVDKDAELVAQWNYCTLSQEILRRPIVACELGRLYNKDAVIEFLLDKSAEKALGKAASHIKSIKNVTELKLSDNPAWEGDKGNTKGDKHDDLQRARFICPVVGLEMNGRHRFCFLRCCGCVFSERALKEIKAEVCHTCGAAFQEDDVIMLNGTKEDVDVLKTRMEERRLRAKLEKKTKKPKAAESVSKPDVSEEAPGPSKVKTGKPEEASLDSREKKTNLAPKSTAMNESSSGKAGKPPCGATKRSIADSEESEAYKSLFTTHSSAKRSKEESAHWVTHTSYCF [RTFDC1] | -0.0475 | 1.24 | 2.61 | 47.6 | 50.2 | 0.0863
MEGISNFKTPSKLSEKKKSVLCSTPTINIPASPFMQKLGFGTGVNVYLMKRSPRGLSHSPWAVKKINPICNDHYRSVYQKRLMDEAKILKSLHHPNIVGYRAFTEANDGSLCLAMEYGGEKSLNDLIEERYKASQDPFPAAIILKVALNMARGLKYLHQEKKLLHGDIKSSNVVIKGDFETIKICDVGVSLPLDENMTVTDPEACYIGTEPWKPKEAVEENGVITDKADIFAFGLTLWEMMTLSIPHINLSNDDDDEDKTFDESDFDDEAYYAALGTRPPINMEELDESYQKVIELFSVCTNEDPKDRPSAAHIVEALETDV [PBK] | 0.0797 | 1.05 | 3.4 | 47.7 | 47.6 | 0.0996
MADDQGCIEEQGVEDSANEDSVDAKPDRSSFVPSLFSKKKKNVTMRSIKTTRDRVPTYQYNMNFEKLGKCIIINNKNFDKVTGMGVRNGTDKDAEALFKCFRSLGFDVIVYNDCSCAKMQDLLKKASEEDHTNAACFACILLSHGEENVIYGKDGVTPIKDLTAHFRGDRCKTLLEKPKLFFIQACRGTELDDGIQADSGPINDTDANPRYKIPVEADFLFAYSTVPGYYSWRSPGRGSWFVQALCSILEEHGKDLEIMQILTRVNDRVARHFESQSDDPHFHEKKQIPCVVSMLTKELYFSQ [CASP7] | 0.00474 | -0.531 | -2.43 | 53.9 | 54.2 | 0.0897

— the supplement of paper PMC5998384
